Assay results as given in paper PMC6048534.

Experiments:
[1] = molecular target: CofB (minor pilin of CFA/III without its N-terminal 28 residues; homotrimer) (enterotoxigenic Escherichia coli (ETEC)); test: AUC
[2] = molecular target: CofB (minor pilin of CFA/III without its N-terminal 28 residues; homotrimer) (enterotoxigenic Escherichia coli (ETEC)); test: ITC

CofJ (intact recombinant secreted protein of the CFA/III operon) (natural protein)
stoichiometry N (CofJ per three CofB molecules) [1]: 1
Kd [2]: 0.14 µM

CofJ (1–24) peptide (synthesized peptide consisting of CofJ residues 1–24)
Kd [2]: 8.8 µM

CofJ (4–16) peptide (synthetic 13-residue peptide comprising CofJ residues 4–16)
Kd [2]: 4.8 µM

CofB (minor pilin of CFA/III without its N-terminal 28 residues; homotrimer) (domain or fragment)
stoichiometry N [1]: 3
